Test results reported in patent US20170152300A1 (CSL, published 2017).
“And” between values parts separate entries of the source, which are not always exact repeats. Identical values can stand only once. Values belong to the molecule of their own block, whether it stands above or below them.

Legend:
[1] = target: recombinant Factor VIII (as described in Zollner et al 2013) (Homo sapiens (Human)) (UniProt P00451); experiment: SPR, anti-His capture
[2] = target: T1, recombinant Factor VIII (as described in Zollner et al 2013) (Homo sapiens (Human), UniProt P00451 20-2351); experiment: SPR, anti-His capture
T1 construct: also called FVIII
T1 sequence: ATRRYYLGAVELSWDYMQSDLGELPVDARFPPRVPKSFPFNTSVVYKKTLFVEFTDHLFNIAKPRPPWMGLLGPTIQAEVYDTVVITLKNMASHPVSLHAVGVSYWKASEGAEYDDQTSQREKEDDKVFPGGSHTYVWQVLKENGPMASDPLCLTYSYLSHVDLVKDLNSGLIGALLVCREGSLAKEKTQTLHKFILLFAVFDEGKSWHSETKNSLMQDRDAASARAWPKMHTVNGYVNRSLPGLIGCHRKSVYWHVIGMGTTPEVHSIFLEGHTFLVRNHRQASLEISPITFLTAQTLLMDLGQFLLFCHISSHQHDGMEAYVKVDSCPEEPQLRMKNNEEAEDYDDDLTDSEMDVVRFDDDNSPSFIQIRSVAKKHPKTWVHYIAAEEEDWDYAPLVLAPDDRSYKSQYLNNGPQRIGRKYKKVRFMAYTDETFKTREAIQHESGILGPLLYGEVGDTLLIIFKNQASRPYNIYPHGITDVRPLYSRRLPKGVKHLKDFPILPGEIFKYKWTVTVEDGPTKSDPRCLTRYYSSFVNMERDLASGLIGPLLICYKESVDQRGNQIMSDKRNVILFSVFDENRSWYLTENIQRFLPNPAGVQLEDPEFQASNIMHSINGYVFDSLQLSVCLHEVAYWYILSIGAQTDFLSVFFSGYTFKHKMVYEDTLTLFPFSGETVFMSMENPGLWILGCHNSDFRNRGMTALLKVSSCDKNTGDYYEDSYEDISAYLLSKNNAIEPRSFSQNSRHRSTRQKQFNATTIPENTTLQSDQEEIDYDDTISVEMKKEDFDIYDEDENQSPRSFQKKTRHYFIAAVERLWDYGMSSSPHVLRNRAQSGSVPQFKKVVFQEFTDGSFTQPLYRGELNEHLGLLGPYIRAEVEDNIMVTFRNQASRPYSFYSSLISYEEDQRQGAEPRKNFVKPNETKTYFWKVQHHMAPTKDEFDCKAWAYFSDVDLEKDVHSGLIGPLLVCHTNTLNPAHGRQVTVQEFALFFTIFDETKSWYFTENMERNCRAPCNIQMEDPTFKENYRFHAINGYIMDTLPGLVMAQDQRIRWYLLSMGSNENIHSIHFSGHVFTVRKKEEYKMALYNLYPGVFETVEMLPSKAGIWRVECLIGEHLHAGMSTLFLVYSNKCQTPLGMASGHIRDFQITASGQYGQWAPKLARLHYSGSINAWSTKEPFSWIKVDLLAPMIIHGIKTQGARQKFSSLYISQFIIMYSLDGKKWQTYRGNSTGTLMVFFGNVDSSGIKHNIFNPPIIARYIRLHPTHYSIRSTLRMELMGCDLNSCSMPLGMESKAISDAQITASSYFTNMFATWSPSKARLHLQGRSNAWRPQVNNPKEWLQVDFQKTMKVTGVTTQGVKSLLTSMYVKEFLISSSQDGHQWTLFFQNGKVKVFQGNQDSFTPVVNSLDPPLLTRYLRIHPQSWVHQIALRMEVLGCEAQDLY
Method: Binding kinetics were investigated by surface plasmon resonance using a Biacore 4000 biosensor at 37° C. Each mutant was captured from cell culture medium to a density of 40-150RU on a CM-5 sensor chip pre-immobilised with anti-His antibody (14,000 RU). In an initial screening study, FVIII was injected over the captured mutants for 5 minutes at 1 nM and dissociation monitored for 5 minutes.
All sensorgrams were double referenced by subtraction of signals from a reference spot (containing only immobilised anti His antibody) and from a blank injection. Binding kinetics were determined by fitting the double referenced sensorgrams to a 1:1 kinetic model.

- Kd [1]: 0.255 nM and 0.199 nM
- koff [1]: 0.00159 s⁻¹ and 0.0025 s⁻¹
- kon [1]: 6.23e+06 M⁻¹ s⁻¹ and 1.25e+07 M⁻¹ s⁻¹
Molecule: Hu-vWF[764-1270]-8His dupS764/S764P/S766I

- fold decrease in off-rate vs wild type [2]: 22 fold
- fold increase in affinity vs wild type [2]: 30 fold
B1: Hu-vWF[764-1270]-8His S764P-S766I (other)
chain: PLICRPPMVKLVCPADNLRAEGLECTKTCQNYDLECMSMGCVSGCLCPPGMVRHENRCVALERCPCFHQGKEYAPGETVKIGCNTCVCRDRKWNCTDHVCDATCSTIGMAHYLTFDGLKYLFPGECQYVLVQDYCGSNPGTFRILVGNKGCSHPSVKCKKRVTILVEGGEIELFDGEVNVKRPMKDETHFEVVESGRYIILLLGKALSVVWDRHLSISVVLKQTYQEKVCGLCGNFDGIQNNDLTSSNLQVEEDPVDFGNSWKVSSQCADTRKVPLDSSPATCHNNIMKQTMVDSSCRILTSDVFQDCNKLVDPEPYLDVCIYDTCSCESIGDCACFCDTIAAYAHVCAQHGKVVTWRTATLCPQSCEERNLRENGYECEWRYNSCAPACQVTCQHPEPLACPVQCVEGCHAHCPPGKILDELLQTCVDPEDCPVCEVAGRRFASGKKVTLNPSDPEHCQICHCDVVNLTCEACQEPGGLVVPPTDAPVSPTTLYVEDISEPPLHDFHHHHHHHH
